Data set [1] concerns EBV. The following applies: small phase 1 clinical trial; cited from earlier work.
The subject of the next data set is goat anti-mouse IgG. The experiment in a line: ELISA for reactivity to anti-mouse IgG (HAMA testing). Type of data set: binding. The following applies: 10 μg/ml antibody on gp350-coated plates. An excerpt: (§1) ClustalW alignment of heavy chain (i) and light chain (ii) variable region amino acid sequences. Murine 72A1 heavy chain and light chain AA sequences are represented by SEQ ID NOs: 178 and 179, respectively, and humanized 72A1 heavy chain and light chain AA sequences are represented by SEQ ID NOs: 180 and 181, respectively. Regions of identical sequence are represented by *. Regions of similarity are represented by :. […] FIG. 4C: ELISA determining the reactivity of humanized 72A1 to murine IgG. Soluble EBV gp350 protein was used as the target antigen at 0.5 μg/ml. […] Bound antibodies were detected using HRP-conjugated anti-mouse IgG or anti-human IgG (1:2,000). […] Unstained cells and cells stained with secondary goat anti-mouse or anti-human conjugated to AF488 alone were used as negative controls.
(§2) ELISA was performed to determine the reactivity of chimeric and humanized antibodies to murine IgG. Soluble EBV gp350 or gH/gL protein was used as the target antigen at 0.5 μg/ml. […] Bound antibodies were detected using HRP-conjugated anti-mouse IgG or anti-human IgG (1:2,000). […] To determine whether chimeric and humanized anti-gp350 retained the ability to recognize linear epitopes on gp350, lysate from CHO WT cells and CHO cell stably expressing gp350 were analyzed by western blot analysis.

Data set [2] deals with EBV. The following applies: SCID mice with PBMC from EBV-naïve donors; cited from earlier work.
Data set [3] has as its system EBV gp350 20-mer linear peptides (gp350 regions). It is filed as binding, Epstein-Barr virus. The following applies: 10 μg/ml mAb, 10 μg/ml peptide. On the procedure: (§3) Forty-five sequential 20-mer linear peptides, covering the whole sequence of gp350 (GenBank: NC_007605.1), with an exception of aa 862-881, were synthesized using a solid phase method and cleaved using a low-high hydrogen fluoride method by the GenicBio, as previously described (58).
(§4) The binding of anti-gp350 mAbs to 45 synthesized 20-mer sequential peptides covering the total length of gp350 was analyzed using indirect ELISA as described (58). Briefly, immunoplates were coated with 50 μl of 10 μg/ml EBV gp350 peptides (forty-five 20-mers) diluted in PBS and incubated overnight at 4° C.; 0.5 μg/ml recombinant EBV gp350 ectodomain protein was used as a positive control. After washing three times with washing buffer (PBS containing 0.05% (v/v) Tween 20), plates were blocked with 100 μl washing buffer containing 3% BSA (blocking buffer), incubated for 1 hour at room temperature, and washed as above. Ten μg/ml purified mAbs were added to each well in triplicate and incubated for 2 hours at room temperature. […] The plates were washed as described above, followed by incubation with goat anti-mouse IgG or goat anti-human IgG HRP-conjugated secondary antibody (1:2,000 diluted in PBS) at room temperature for 1 hour. The plates were washed again and the chromogenic substrate ABTS was added. The reaction was stopped using ABTS peroxidase stop solution. The absorbance was read at an optical density of 405 nm using an ELISA plate reader.
(§5) The peptide library, consisting of 20-mer peptides, covered the entire gp350 protein, with the exception of AA 862-881 (Table 9).
(§6) Purified recombinant gp350 ectodomain was used as a control to validate the binding activity for all of the antibodies used. The overall gp350 sequence was divided into nine different regions consisting of ˜100 AA (FIG. 7).

For the next data set, the system named is goat anti-human IgG. Nature of the data set: ELISA for reactivity to anti-human IgG (HAMA testing). It is filed as binding. The note with it: 10 μg/ml antibody on gp350-coated plates.
From the text: as §1, §2
Background: An ELISA detects its analyte on a solid surface through an enzyme-linked reagent.

Data set [4] concerns the target T1, EBV gp350 20-mer linear peptides (gp350 regions) (Epstein-Barr virus, UniProt P03200).
T1 construct: purchased GenicBio; host or cells: chemical solid-phase synthesis
Type of data set: binding. How it is done: as §3, §4, §5, §6

In data set [5] the target is T2, gp350 protein on gp350 expressing CHO cells (Epstein-Barr virus, UniProt P03200).
T2 construct: stably co-transfected with full-length pCAGGS-gp350/220 and pCI-puro vector; expressed in transfected cells; host or cells: CHO cells
T2 sequence (P03200 whole entry): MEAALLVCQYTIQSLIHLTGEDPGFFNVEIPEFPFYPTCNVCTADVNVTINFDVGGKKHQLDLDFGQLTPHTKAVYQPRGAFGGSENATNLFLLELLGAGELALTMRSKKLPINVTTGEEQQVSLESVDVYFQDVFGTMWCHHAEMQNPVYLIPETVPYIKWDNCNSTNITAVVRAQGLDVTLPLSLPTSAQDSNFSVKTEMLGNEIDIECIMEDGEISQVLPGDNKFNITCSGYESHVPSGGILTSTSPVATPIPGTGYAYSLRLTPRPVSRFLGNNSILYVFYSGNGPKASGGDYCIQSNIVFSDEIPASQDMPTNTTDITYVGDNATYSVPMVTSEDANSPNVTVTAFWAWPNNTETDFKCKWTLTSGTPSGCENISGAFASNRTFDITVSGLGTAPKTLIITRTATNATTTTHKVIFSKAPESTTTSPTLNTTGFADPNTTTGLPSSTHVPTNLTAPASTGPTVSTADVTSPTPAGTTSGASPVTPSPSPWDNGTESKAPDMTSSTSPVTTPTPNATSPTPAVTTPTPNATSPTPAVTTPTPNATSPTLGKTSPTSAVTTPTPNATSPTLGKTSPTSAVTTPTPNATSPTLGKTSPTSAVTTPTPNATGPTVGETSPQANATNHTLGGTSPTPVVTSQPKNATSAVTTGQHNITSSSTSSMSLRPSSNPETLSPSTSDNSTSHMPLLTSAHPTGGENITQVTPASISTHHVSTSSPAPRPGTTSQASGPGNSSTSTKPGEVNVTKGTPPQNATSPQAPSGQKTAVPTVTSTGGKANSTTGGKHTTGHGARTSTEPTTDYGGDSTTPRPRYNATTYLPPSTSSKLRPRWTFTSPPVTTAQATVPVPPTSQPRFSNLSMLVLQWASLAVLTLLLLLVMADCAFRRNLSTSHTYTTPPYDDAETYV
Nature of the data set: Flow cytometry of CHO cells stably expressing EBV gp350. It is filed as binding. The following applies: for type of gp350 epitope recognized (linear / conformational): concluded from flow cytometry and immunoblot. How it is done:
To assess the ability of purified anti-gp350 mAb to detect surface expression of EBV gp350 protein by flow cytometry, CHO cells that stably express EBV gp350 were harvested and stained with purified anti-gp350 (10 μg/ml), followed by AF488 goat anti-mouse IgG secondary antibody. Flow cytometric analysis was performed on a C-6 FC (BD Biosciences) and data was analyzed using FlowJo Cytometry Analysis software (FlowJo, LLC) as described (47). All the experiments were independently repeated three times.
These novel antibodies were analyzed by flow cytometric analysis for surface expression of gp350 protein on 10^6 CHO cells transfected with 1 μg of pCAGGS-gp350. gp350 expressing cells were resuspended in PBS, stained with anti-gp350 mAb, which detects the gp350 ED, followed by secondary Ab goat anti-mouse conjugated to AF488. Additionally, western blot analysis was conducted on untransfected and pCAGGS-gp350 transfected CHO lysate. Anti-gp350 mAb 72A1 was used as a positive control (1:100) and anti-gp350 hybridoma clone supernatants were used at 1:50, and anti-mouse secondary antibody was used at 1:2000.
Flow cytometric analysis of gp350 and gH/gL specificity was performed. CHO wild type cells and gp350 or gH/gL-expressing CHO cells were stained with primary antibodies, followed by secondary goat anti-mouse or anti-human conjugated to AF488. Unstained cells and cells stained with secondary goat anti-mouse or anti-human conjugated to AF488 alone, were used as negative controls.
On the technique in general: Flow cytometry measures light scatter and fluorescence of single cells or particles in a stream.

T1 sequence (P03200 142-161): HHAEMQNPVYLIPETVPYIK

B1: m72A1: EBV anti-gp350 neutralizing mouse antibody purified from HB168 hybridoma (ATCC); SEQ ID NO: 100 / 101 (antibody, V domains shown)
VH: PELVKPGTSMKISCKASGSSFTDYTMNWMKQSHGKNLEWIGLINPYNGGTRYNQKFKGKATLTLDKSSSTAYMEVLSLTSEDSAVYYCAGGLRRVNWFAYWGQGTLVSVSAAKTTPPSVYPLAPGSAAQTNSMVTLG
VL: QAVLTQESALTTSPGETVTLTCRSSTGAVTTSNYANWVQEKPDHLFTGLIGGTNNRVPGVPARFSGSLIGDKAALTITGAQTEDEAIYFCVLWHSNHWVFGGGTKLTVL
modifications: heavy chain mAb 72A1; light chain mAb 72A1
Consider B1, for which, in the data set with EBV [1], the “patients developing a hypersensitivity reaction” value was “one”, the “patients who developed human anti-mouse Abs (HAMA)” value is listed as “all 4” and the “short-term protection against acquiring EBV after transplantation” value is 3 out of 4. In the data set on goat anti-mouse IgG, the “reactivity to goat anti-mouse IgG above the background (1×PBS)” value was 28 fold and the “reactivity to goat-anti-mouse IgG as compared to goat anti-human IgG” value came out at 9 fold. Besides, the “protection against EBV and development of EBV+ tumors or PTLD-like lesions” value with EBV [2] is “completely protected”. Also, the “binding to gp350 region AA 102-201 (linear peptides)” value (“binding” below) in data set [3] is “bound”.

B2: h72A1: humanized 72A1 IgG1; heavy and light chain SEQ ID NOs: 180 and 181 (antibody, V domains shown)
VH: EVQLVESGGGLVQPGGSLRLSCAASGSSFTDYTMNWMRQSPGKGLEWIGLINPYNGGTRYADSVKGRATLSLDKSKNTAYLQMNSLRAEDTAIYYCAGGLRRVNWFAYWGQGTLVTVSS
VL: DAQLTQSPILLSASVGDRVTITCRSSTGAVTTSNYANWVQERTNGSFRGLIGGTNNRVPGVPSRFSGSLSGDDATLTISSLQPEDEADYFCVLWHSNHWVFGAGTKVEIKR
As to B2, in the data set on goat anti-mouse IgG, the “reactivity to goat anti-mouse IgG above the background (1×PBS)” value was “did not react at all”. Besides, the “reactivity to goat anti-human IgG over the background” value in the data set with goat anti-human IgG stood at 2100 fold. Besides, the “recognition of gp350 peptides of the principal neutralizing epitope (142-161)” value in data set [4] was “recognized both native gp350 as well as gp350 peptides that constitute the principal gp350 neutralizing epitope (142-161)”. Moreover, in data set [3], the “binding” value was “bound”. Also, the “Flow cytometry (CHO Cells)” value in data set [5] (CHO cells stably expressing gp350 on the surface, native/conformational epitopes) is recorded as “recognized native epitopes of gp350 expressed on CHO cells surface, comparable to m72A1”.

B3: HB20: murine anti-EBV gp350 mAb, IgG2a κ; SEQ ID NO: 128 / 129; neutralizing (antibody, V domains shown)
VH: ELVKPGASVKLSCKASGYTFTSYWIQWVKQRPGQGLEWIGEINPTNGHTNYNEKFKTKATLTVDKSSSTAYMRLSSLTSEDSAVYYCARNLYYYGRPDYWGQGTSVTVSSAKTTAPSVYPLAPVCGDTTGSSVTLG
VL: SSLSASLGDRVTISCRASQDIGNYLNWYQQKPDGTVKLLIYYTSRLHSGVPSRFSGSGSGTDYSLTISNLEQEDIATYFCQQGNALPPTFGGGTKLEIKRADAAPTV
modifications: heavy chain mAb HB20; light chain mAb HB20
notes: murine anti-EBV gp350 mAb, IgG2a κ; neutralizing
As to B3, the “binding” value in data set [3] is given as “bound”. The “type of gp350 epitope recognized (linear / conformational)” value (“type … (linear / conformational)” for short) in data set [5] is “only recognized conformational epitopes”.

B4: HB11: murine anti-EBV gp350 mAb, IgG1 κ; SEQ ID NO: 120 / 121; neutralizing (antibody, V domains shown)
VH: PSLVKPSQTLSLTCSVTGDSITSGFWNWIRKFPGNKLEYMGYISYSGSTYYNPSLKSRISITRDTSKNQYYLQLNSVTTEDTATYYCARGNGGNYDWYFDVWGAGTTVTVSSAKTTPPSVYPLAPGSAAQTNSMVTLG
VL: AIMSASLGEKVTMSCRASSSVNFMNWYQQKSDDSPKLLIYYISNLAPGVPARFSGSGSGNSYSLTISGMEGEDAATYYCQQFTSSPSWTFGGGTKLEIKRADAAPTV
modifications: heavy chain mAb HB11; light chain mAb HB11
notes: murine anti-EBV gp350 mAb, IgG1 κ; neutralizing
On to B4, for which, in data set [3], the “binding” value is recorded as “bound”. Moreover, the “type … (linear / conformational)” value in data set [5] is “recognized both linear and conformational epitopes”.

B5: HB5: murine anti-EBV gp350 mAb, IgG2a κ; SEQ ID NO: 108 / 109; neutralizing (antibody, V domains shown)
VH: AELVRPGASVKISCKAFGYTFTNHNINWVKQRPGQGLDWIGYINPYNDYTSYNQKFKGKATLTVDKSSNTAYMELSSLTSEDSAVYYCARSEGWLRRGAWFAYWGQGTLVTVSAAKTTAPSVYPLAPVCGDTTGSSVTLG
VL: AILSVSPGERVSFSCRASQSIGTSIHWYQQRTNDSPRLLIKYASESISGIPPRFSGSGSGTDFTLSINSVESEDIADYHCQQSNSWPMLTFGAGTKLELKRADAAPTV
modifications: heavy chain mAb HB5; light chain mAb HB5
notes: as for B3
As for B5, the “binding” value in data set [3] is “bound”. In addition, the “type … (linear / conformational)” value in data set [5] was “recognized both linear and conformational epitopes”.

The record behind these values is patent US12012446B2, “Epstein-Barr virus antibodies and uses thereof” (priority 2017, dated 2024).
